koff data for 22 molecules are collected here from patent US20240209076A1 (KODIAK SCIENCES, published 2024).

B1: anti-IL-6 Fab, light chain S55P (Fab, V domains shown)
VH: EVQLVESGGGLVQPGGSLRLSCAASGFTFSPFAMSWVRQAPGKGLEWVAKISPGGSWTYYSDTVTGRFTFSLDTSKSTAYLQMNSLRAEDTAVYYCARQLWGYYALDIWGQGTLVTVSS
VL: DIQLTQSPSSLSASVGDRVTITCSASISVSYMYWYQQKPGKAPKLLIYDMSNLAPGVPSRFSGSGSGTDFTLTISSLQPEDFATYYCMQWSGYPYTFGQGTKVEIK
notes: see m39
B2: anti-IL-6 Fab, heavy chain Y104V (Fab, V domains shown)
VH: EVQLVESGGGLVQPGGSLRLSCAASGFTFSPFAMSWVRQAPGKGLEWVAKISPGGSWTYYSDTVTGRFTFSLDTSKSTAYLQMNSLRAEDTAVYYCARQLWGYVALDIWGQGTLVTVSS
VL: DIQLTQSPSSLSASVGDRVTITCSASISVSYMYWYQQKPGKAPKLLIYDMSNLASGVPSRFSGSGSGTDFTLTISSLQPEDFATYYCMQWSGYPYTFGQGTKVEIK
B3: anti-IL-6 Fab, heavy chain A97V (Fab, V domains shown)
VH: EVQLVESGGGLVQPGGSLRLSCAASGFTFSPFAMSWVRQAPGKGLEWVAKISPGGSWTYYSDTVTGRFTFSLDTSKSTAYLQMNSLRAEDTAVYYCVRQLWGYYALDIWGQGTLVTVSS
VL: DIQLTQSPSSLSASVGDRVTITCSASISVSYMYWYQQKPGKAPKLLIYDMSNLASGVPSRFSGSGSGTDFTLTISSLQPEDFATYYCMQWSGYPYTFGQGTKVEIK
B4: anti-IL-6 Fab, heavy chain I108S (Fab, V domains shown)
VH: EVQLVESGGGLVQPGGSLRLSCAASGFTFSPFAMSWVRQAPGKGLEWVAKISPGGSWTYYSDTVTGRFTFSLDTSKSTAYLQMNSLRAEDTAVYYCARQLWGYYALDSWGQGTLVTVSS
VL: DIQLTQSPSSLSASVGDRVTITCSASISVSYMYWYQQKPGKAPKLLIYDMSNLASGVPSRFSGSGSGTDFTLTISSLQPEDFATYYCMQWSGYPYTFGQGTKVEIK
B5: anti-IL-6 Fab, heavy chain Y103S (Fab, V domains shown)
VH: EVQLVESGGGLVQPGGSLRLSCAASGFTFSPFAMSWVRQAPGKGLEWVAKISPGGSWTYYSDTVTGRFTFSLDTSKSTAYLQMNSLRAEDTAVYYCARQLWGSYALDIWGQGTLVTVSS
VL: DIQLTQSPSSLSASVGDRVTITCSASISVSYMYWYQQKPGKAPKLLIYDMSNLASGVPSRFSGSGSGTDFTLTISSLQPEDFATYYCMQWSGYPYTFGQGTKVEIK
B6: anti-IL-6 Fab, light chain S55W (Fab, V domains shown)
VH: EVQLVESGGGLVQPGGSLRLSCAASGFTFSPFAMSWVRQAPGKGLEWVAKISPGGSWTYYSDTVTGRFTFSLDTSKSTAYLQMNSLRAEDTAVYYCARQLWGYYALDIWGQGTLVTVSS
VL: DIQLTQSPSSLSASVGDRVTITCSASISVSYMYWYQQKPGKAPKLLIYDMSNLAWGVPSRFSGSGSGTDFTLTISSLQPEDFATYYCMQWSGYPYTFGQGTKVEIK
notes: see m39
B7: anti-IL-6 Fab, light chain Y48W (Fab, V domains shown)
VH: EVQLVESGGGLVQPGGSLRLSCAASGFTFSPFAMSWVRQAPGKGLEWVAKISPGGSWTYYSDTVTGRFTFSLDTSKSTAYLQMNSLRAEDTAVYYCARQLWGYYALDIWGQGTLVTVSS
VL: DIQLTQSPSSLSASVGDRVTITCSASISVSYMYWYQQKPGKAPKLLIWDMSNLASGVPSRFSGSGSGTDFTLTISSLQPEDFATYYCMQWSGYPYTFGQGTKVEIK
notes: see m39
B8: anti-IL-6 Fab, light chain S55Y (Fab, V domains shown)
VH: EVQLVESGGGLVQPGGSLRLSCAASGFTFSPFAMSWVRQAPGKGLEWVAKISPGGSWTYYSDTVTGRFTFSLDTSKSTAYLQMNSLRAEDTAVYYCARQLWGYYALDIWGQGTLVTVSS
VL: DIQLTQSPSSLSASVGDRVTITCSASISVSYMYWYQQKPGKAPKLLIYDMSNLAYGVPSRFSGSGSGTDFTLTISSLQPEDFATYYCMQWSGYPYTFGQGTKVEIK
notes: see m39
B9: anti-IL-6 Fab, light chain S91A (Fab, V domains shown)
VH: EVQLVESGGGLVQPGGSLRLSCAASGFTFSPFAMSWVRQAPGKGLEWVAKISPGGSWTYYSDTVTGRFTFSLDTSKSTAYLQMNSLRAEDTAVYYCARQLWGYYALDIWGQGTLVTVSS
VL: DIQLTQSPSSLSASVGDRVTITCSASISVSYMYWYQQKPGKAPKLLIYDMSNLASGVPSRFSGSGSGTDFTLTISSLQPEDFATYYCMQWAGYPYTFGQGTKVEIK
notes: see m39
B10: anti-IL-6 Fab, light chain Y95G (Fab, V domains shown)
VH: EVQLVESGGGLVQPGGSLRLSCAASGFTFSPFAMSWVRQAPGKGLEWVAKISPGGSWTYYSDTVTGRFTFSLDTSKSTAYLQMNSLRAEDTAVYYCARQLWGYYALDIWGQGTLVTVSS
VL: DIQLTQSPSSLSASVGDRVTITCSASISVSYMYWYQQKPGKAPKLLIYDMSNLASGVPSRFSGSGSGTDFTLTISSLQPEDFATYYCMQWSGYPGTFGQGTKVEIK
notes: see m39
B11: anti-IL-6 Fab, light chain Y33F (Fab, V domains shown)
VH: EVQLVESGGGLVQPGGSLRLSCAASGFTFSPFAMSWVRQAPGKGLEWVAKISPGGSWTYYSDTVTGRFTFSLDTSKSTAYLQMNSLRAEDTAVYYCARQLWGYYALDIWGQGTLVTVSS
VL: DIQLTQSPSSLSASVGDRVTITCSASISVSYMFWYQQKPGKAPKLLIYDMSNLASGVPSRFSGSGSGTDFTLTISSLQPEDFATYYCMQWSGYPYTFGQGTKVEIK
notes: see m39
B12: anti-IL-6 Fab, light chain S91K (Fab, V domains shown)
VH: EVQLVESGGGLVQPGGSLRLSCAASGFTFSPFAMSWVRQAPGKGLEWVAKISPGGSWTYYSDTVTGRFTFSLDTSKSTAYLQMNSLRAEDTAVYYCARQLWGYYALDIWGQGTLVTVSS
VL: DIQLTQSPSSLSASVGDRVTITCSASISVSYMYWYQQKPGKAPKLLIYDMSNLASGVPSRFSGSGSGTDFTLTISSLQPEDFATYYCMQWKGYPYTFGQGTKVEIK
notes: see m39
B13: anti-IL-6 Fab, light chain Y31F (Fab, V domains shown)
VH: EVQLVESGGGLVQPGGSLRLSCAASGFTFSPFAMSWVRQAPGKGLEWVAKISPGGSWTYYSDTVTGRFTFSLDTSKSTAYLQMNSLRAEDTAVYYCARQLWGYYALDIWGQGTLVTVSS
VL: DIQLTQSPSSLSASVGDRVTITCSASISVSFMYWYQQKPGKAPKLLIYDMSNLASGVPSRFSGSGSGTDFTLTISSLQPEDFATYYCMQWSGYPYTFGQGTKVEIK
notes: see m39
B14: anti-IL-6 Fab, light chain Y31G (Fab, V domains shown)
VH: EVQLVESGGGLVQPGGSLRLSCAASGFTFSPFAMSWVRQAPGKGLEWVAKISPGGSWTYYSDTVTGRFTFSLDTSKSTAYLQMNSLRAEDTAVYYCARQLWGYYALDIWGQGTLVTVSS
VL: DIQLTQSPSSLSASVGDRVTITCSASISVSGMYWYQQKPGKAPKLLIYDMSNLASGVPSRFSGSGSGTDFTLTISSLQPEDFATYYCMQWSGYPYTFGQGTKVEIK
notes: see m39
B15: anti-IL-6 Fab, light chain T96L (Fab, V domains shown)
VH: EVQLVESGGGLVQPGGSLRLSCAASGFTFSPFAMSWVRQAPGKGLEWVAKISPGGSWTYYSDTVTGRFTFSLDTSKSTAYLQMNSLRAEDTAVYYCARQLWGYYALDIWGQGTLVTVSS
VL: DIQLTQSPSSLSASVGDRVTITCSASISVSYMYWYQQKPGKAPKLLIYDMSNLASGVPSRFSGSGSGTDFTLTISSLQPEDFATYYCMQWSGYPYLFGQGTKVEIK
notes: see m39
B16: anti-IL-6 Fab, light chain Y95I (Fab, V domains shown)
VH: EVQLVESGGGLVQPGGSLRLSCAASGFTFSPFAMSWVRQAPGKGLEWVAKISPGGSWTYYSDTVTGRFTFSLDTSKSTAYLQMNSLRAEDTAVYYCARQLWGYYALDIWGQGTLVTVSS
VL: DIQLTQSPSSLSASVGDRVTITCSASISVSYMYWYQQKPGKAPKLLIYDMSNLASGVPSRFSGSGSGTDFTLTISSLQPEDFATYYCMQWSGYPITFGQGTKVEIK
notes: see m39
B17: anti-IL-6 Fab, light chain V29L (Fab, V domains shown)
VH: EVQLVESGGGLVQPGGSLRLSCAASGFTFSPFAMSWVRQAPGKGLEWVAKISPGGSWTYYSDTVTGRFTFSLDTSKSTAYLQMNSLRAEDTAVYYCARQLWGYYALDIWGQGTLVTVSS
VL: DIQLTQSPSSLSASVGDRVTITCSASISLSYMYWYQQKPGKAPKLLIYDMSNLASGVPSRFSGSGSGTDFTLTISSLQPEDFATYYCMQWSGYPYTFGQGTKVEIK
notes: see m39
B18: anti-IL-6 Fab, light chain S55R (Fab, V domains shown)
VH: EVQLVESGGGLVQPGGSLRLSCAASGFTFSPFAMSWVRQAPGKGLEWVAKISPGGSWTYYSDTVTGRFTFSLDTSKSTAYLQMNSLRAEDTAVYYCARQLWGYYALDIWGQGTLVTVSS
VL: DIQLTQSPSSLSASVGDRVTITCSASISVSYMYWYQQKPGKAPKLLIYDMSNLARGVPSRFSGSGSGTDFTLTISSLQPEDFATYYCMQWSGYPYTFGQGTKVEIK
notes: see m39
B19: anti-IL-6 Fab, light chain S55V (Fab, V domains shown)
VH: EVQLVESGGGLVQPGGSLRLSCAASGFTFSPFAMSWVRQAPGKGLEWVAKISPGGSWTYYSDTVTGRFTFSLDTSKSTAYLQMNSLRAEDTAVYYCARQLWGYYALDIWGQGTLVTVSS
VL: DIQLTQSPSSLSASVGDRVTITCSASISVSYMYWYQQKPGKAPKLLIYDMSNLAVGVPSRFSGSGSGTDFTLTISSLQPEDFATYYCMQWSGYPYTFGQGTKVEIK
notes: see m39
B20: anti-IL-6 Fab, light chain T96I (Fab, V domains shown)
VH: EVQLVESGGGLVQPGGSLRLSCAASGFTFSPFAMSWVRQAPGKGLEWVAKISPGGSWTYYSDTVTGRFTFSLDTSKSTAYLQMNSLRAEDTAVYYCARQLWGYYALDIWGQGTLVTVSS
VL: DIQLTQSPSSLSASVGDRVTITCSASISVSYMYWYQQKPGKAPKLLIYDMSNLASGVPSRFSGSGSGTDFTLTISSLQPEDFATYYCMQWSGYPYIFGQGTKVEIK
notes: see m39
B21: anti-IL-6 Fab, light chain Y48F (Fab, V domains shown)
VH: EVQLVESGGGLVQPGGSLRLSCAASGFTFSPFAMSWVRQAPGKGLEWVAKISPGGSWTYYSDTVTGRFTFSLDTSKSTAYLQMNSLRAEDTAVYYCARQLWGYYALDIWGQGTLVTVSS
VL: DIQLTQSPSSLSASVGDRVTITCSASISVSYMYWYQQKPGKAPKLLIFDMSNLASGVPSRFSGSGSGTDFTLTISSLQPEDFATYYCMQWSGYPYTFGQGTKVEIK
notes: see m39
B22: anti-IL-6 Fab, light chain T96V (Fab, V domains shown)
VH: EVQLVESGGGLVQPGGSLRLSCAASGFTFSPFAMSWVRQAPGKGLEWVAKISPGGSWTYYSDTVTGRFTFSLDTSKSTAYLQMNSLRAEDTAVYYCARQLWGYYALDIWGQGTLVTVSS
VL: DIQLTQSPSSLSASVGDRVTITCSASISVSYMYWYQQKPGKAPKLLIYDMSNLASGVPSRFSGSGSGTDFTLTISSLQPEDFATYYCMQWSGYPYVFGQGTKVEIK
notes: see m39

For the experiment, the target named is recombinant human IL-6 (human, UniProt P05231 30-212). Description: SPR, IL-6 on CM5 chip, Fab lysate, 25 C.
Sequence of recombinant human IL-6 (P05231 30-212 limits assumed): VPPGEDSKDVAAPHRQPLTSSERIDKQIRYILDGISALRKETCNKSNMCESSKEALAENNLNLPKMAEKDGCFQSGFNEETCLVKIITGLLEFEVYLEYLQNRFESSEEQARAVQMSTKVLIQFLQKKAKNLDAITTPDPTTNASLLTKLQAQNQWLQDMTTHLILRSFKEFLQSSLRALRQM
What is called koff is the first-order rate constant of dissociation. With B1, the koff came out at 0.0052 s⁻¹.
The result for B2 reads 0.00381 s⁻¹; that for B3, 0.00412 s⁻¹.
Turning to B4, the koff was 0.00352 s⁻¹.
In the case of B5, the off-rate (koff) was 0.00502 s⁻¹.
The result for B6 reads 0.0051 s⁻¹; that for B7, 0.00563 s⁻¹; that for B8, 0.00508 s⁻¹.
Consider B9, for which the koff came out at 0.00559 s⁻¹.
In the case of B10 it was 0.00462 s⁻¹; in that of B11, 0.00618 s⁻¹.
In the case of B12 it was 0.00549 s⁻¹; in that of B13, 0.0051 s⁻¹.
The result for B14 reads 0.00511 s⁻¹.
B15: the dissociation rate constant (koff) was determined as 0.00478 s⁻¹.
In the case of B16 it was 0.00608 s⁻¹.
The result for B17 reads 0.00543 s⁻¹.
The result for B18 reads 0.00526 s⁻¹; that for B19, 0.00516 s⁻¹; that for B20, 0.00423 s⁻¹.
B21: the koff turned out to be 0.00537 s⁻¹.
For the molecule B22, the koff stood at 0.00504 s⁻¹.
